{
  "source": "patent US7858756B2",
  "about": "“Monoclonal antibodies that selectively recognize methamphetamine and methamphetamine like compounds” (The Board of Trustees of the University of Arkansas, priority 2006, dated 2010)",
  "molecules": {"B1": {"name": "mAb4G9: monoclonal antibody, IgG2b κ, heavy chain SEQ ID NO:25, light chain SEQ ID NO:26, generated against hapten (+)METH MO10-ovalbumin (antibody, listed as Mus musculus)", "heavy": "EYQLQQSGTVLARPGASVKMSCKASGYTFTSYWMHWVKQRPGQGLEWIGGIYPGNSDTTYNQKFKGKAKLTAVTSTSTAYMELSSLTNEDSAVYYCLYGNYDFDYWGQGTTLTVSSAKTTPPSVYPLAPGCGDTTGSSVTLGCLVKGYFPESVTVTWNSGSLSSSVHTFPALLQSGLYTMSSSVTVPSSTWPSQTVTCSVAHPASSTTVDKKLEPSGPISTINPCPPCKECHKCPAPNLEGGPSVFIFPPNIKDVLMISLTPKVTCVVVDVSEDDPDVQISWFVNNVEVHTAQTQTHREDYNSTIRVVSTLPIQHQDWMSGKEFKCKVNNKDLPSPIERTISKIKGLVRAPQVYILPPPAEQLSRKDVSLTCLVVGFNPGDISVEWTSNGHTEENYKDTAPVLDSDGSYFIYSKLNMKTSKWEKTDSFSCNVRHEGLKNYYLKKTISRSPGK", "light": "DVQMTQSPSSLSASLGGKVTITCKASQDINKFIAWYQHKPGKGPRLLIHYTSTLQPGIPSRFSGSGSGRDYSFSISNLEPEDIATYYCLQYANLLPWTFGGGTKLEIKRADAAPTVSIFPPSSEQLTSGGASVVCFLNNFYPKDINVKWKIDGSERQNGVLNSWTDQDSKDSTYSMSSTLTLTKDEYERHNSYTCEATHKTSTSPIVKSFNRNEC"}, "B2": {"name": "mAb2F11: monoclonal antibody comprising heavy chain SEQ ID NO:19 and light chain SEQ ID NO:21 (antibody, listed as Mus musculus)", "heavy": "EYQLQQSGTVLARPGASVKMSCKASGYTFTNYWMHWVKQRPGQGLEWIGGIYPGNSDTTYNQKFKGKAKLTAVTSTSTAYMELSSLTNEDSAVYYCLYGNYDFDYWGQGTTLTVSSAKTTAPSVYPLAPVCGDTTGSSVTLGCLVKGYFPEPVTLTWNSGSLSSGVHTFPAVLQSDLYTLSSSVTVTSSTWPSQSITCNVAHPASSTKVDKKIEPRGPTIKPCPPCKCPAPNLLGGPSVFIFPPKIKDVLMISLSPIVTCVVVDVSEDDPDVQISWFVNNVEVHTAQTQTHREDYNSTLRVVSALPIQHQDWMSGKEFKCKVNNKDLPAPIERTISKPKGSVRAPQVYVLPPPEEEMTKKQVTLTCMVTDFMPEDIYVEWTNNGKTELNYKNTEPVLDSDGSYFMYSKLRVEKKNWVERNSYSCSVVHEGLHNHHTTKSFSRTPGK", "light": "B1 light with V2I, Q27H, I29V, A92T"}},
  "key": {"[1]": {"assay": "(+)AMP self-administration, fixed interval (60 sec) paradigm", "format": "in vivo, rats", "conditions": "100 mg/kg mAb, 0.03 mg/kg (+)AMP per infusion", "protocol": "(§1) FIG. 6 presents graphs depicting the effect of mAb4G9 on METH discrimination (Panel A) and AMP self-administration (Panel B) in rats. (A) Rats were trained to discriminate […] and METH and then administered mAb4G9. Drug discrimination dose response curves were then determined for METH. (B) (+)AMP self-administration before and after treatment with mAb4G9 (3-4 rats/time point). Dashed lines are used to show the groupings of responding for (+)AMP before and after mAb. *P<0.05 compared to control group before antibody (open circles).\nWe also tested the ability of mAb4G9 to block (+)AMP self-administration in a model in which rats responded under a fixed interval (60 sec) paradigm for a dose of 0.03 mg/kg (+)AMP per infusion."}, "[2]": {"assay": "METH drug discrimination model", "format": "in vivo, rats", "conditions": "600 mg/kg mAb", "protocol": "as §1\nThe in vivo effects of mAb4G9 were examined using a drug discrimination model. mAb4G9 appeared to be an effective and long-lasting antagonist of METH effects in this model (FIG. 6A). The mAb4G9 (600 mg/kg) shifted the dose response curves for at least 7 days. On the first and second day after mAb treatment, the dose response curve was shifted about 4- to 6-fold. When tested again at 7 days after mAb4G9 treatment, the dose response curve was still shifted about 2.5 fold."}, "[3]": {"assay": "Functional half-life study, 14-day continuous (+)METH infusion, serum concentrations", "format": "in vivo, rats", "protocol": "The best-fit line was determined using a weighted two-compartment pharmacokinetic model.\nSerum samples were collected pre-mAb and at time points after mAb administration."}, "[4]": {"assay": "METH infusion by sc osmotic minipump, serum and brain METH and AMP concentrations after mAb", "format": "in vivo, rat", "conditions": "for AMP serum concentrations vs pre-mAb levels / METH serum concentrations vs pre-mAb levels: rat serum, 1 min to 24 hr after mAb, FIG. 7", "protocol": "FIG. 7 depicts two graphs showing the effect of mAb6H4 (Panel A) and mAb4G9 (Panel B) on METH (closed circles) and AMP (open circles) concentrations in rat serum. METH was infused using a subcutaneous osmotic minipump and once steady state concentrations were reached, anti-METH mAb was administered. Rats were sacrificed at various time points for determination of serum METH and AMP concentrations.\nFIG. 8 depicts two graphs showing the effect of mAb6H4 (Panel A) and mAb4G9 (Panel B) on METH (closed circles) and AMP (open circles) concentrations in the rat brain. METH was infused using a subcutaneous osmotic minipump and once steady state concentrations were reached, anti-METH mAb was administered. Rats were sacrificed at various time points for determination of brain METH and AMP concentrations. One way ANOVA followed by a Dunnett's test was used to compare control and post-mAb METH and AMP values."}, "[5]": {"assay": "RIA, inhibition of [3H]-(+)METH binding to mAb", "conditions": "RIA IC50 for METH / RIA IC50 for test ligand", "text": "In reference to (+)methamphetamine, the IC50 ratio refers to the ratio of the IC50 for (+)methamphetamine in the presence of labeled (+)methamphetamine to the IC50 for a test ligand in the presence of labeled (+)methamphetamine. The IC50 value is the concentration of test ligand required to inhibit 50% of the labeled (+)methamphetamine binding. For instance, see Table 2 in the Examples.\nDetermination of immunochemical specificity."}, "[6]": {"conditions": "(+)METH 5.6 mg/kg/day sc minipump, single mAb dose equimolar to body burden"}},
  "note": "Changes are numbered by the printed parent chain. Entries after “also recorded” stand apart in the source; their conditions may differ.",
  "data": [
    {"molecule": "B1", "values": [
      {"measurement": "number of (+)AMP injections per session", "setting": "[1]", "value": "significantly reduced"},
      {"measurement": "duration of shift of dose response curves", "setting": "[2]", "value": "at least 7 days"},
      {"measurement": "shift of METH dose response curve", "setting": "[2]; 7 days after treatment", "value": "about 2.5 fold"},
      {"measurement": "serum (+)AMP concentrations compared with pre-mAb", "setting": "[3]; [6]", "value": "maintained significantly increased concentrations"},
      {"measurement": "serum (+)METH concentrations compared with pre-mAb", "setting": "[3]; [6]", "value": "maintained significantly increased concentrations"},
      {"measurement": "time after which mAb still very effective", "setting": "[3]; continuous (+)METH infusion, single mAb dose", "value": "about 2 wks"},
      {"measurement": "AMP brain concentrations vs no mAb group", "setting": "[4]; rat brain, FIG. 8", "value": "reduces both METH and AMP concentrations in the brain; also recorded: significantly decreased at the 5 and 30 min time points"},
      {"measurement": "METH brain concentrations vs no mAb group", "setting": "[4]; rat brain, FIG. 8", "value": "reduces both METH and AMP concentrations in the brain; also recorded: significantly decreased METH brain concentrations at all time points"},
      {"measurement": "AMP serum concentrations vs pre-mAb levels", "setting": "[4]", "value": "repartitions AMP into the serum from other compartments; also recorded: maintains significantly elevated serum METH and AMP concentrations 24 h after administration"},
      {"measurement": "METH serum concentrations vs pre-mAb levels", "setting": "[4]", "value": "maintains significantly elevated serum METH and AMP concentrations 24 h after administration"},
      {"measurement": "AMP serum concentrations vs pre-mAb levels", "setting": "[4]; listed as MAb4G9", "value": "significantly increased METH and AMP serum concentrations from 1 min to 24 hrs"},
      {"measurement": "METH serum concentrations vs pre-mAb levels", "setting": "[4]; listed as MAb4G9", "value": "significantly increased METH and AMP serum concentrations from 1 min to 24 hrs"},
      {"measurement": "Antibody Specificity (IC50 ratio as percent), 4-OH-METH", "setting": "[5]", "value": 10.6, "unit": "%"},
      {"measurement": "Antibody Specificity (IC50 ratio as percent), (+)AMP", "setting": "[5]", "value": 34, "unit": "%"},
      {"measurement": "Antibody Specificity (IC50 ratio as percent), (+)MDA", "setting": "[5]", "value": 9.0, "unit": "%"},
      {"measurement": "Antibody Specificity (IC50 ratio as percent), (+)MDMA", "setting": "[5]", "value": 29, "unit": "%"},
      {"measurement": "Antibody Specificity (IC50 ratio as percent), (+)METH", "setting": "[5]", "value": 100, "unit": "%"},
      {"measurement": "Antibody Specificity (IC50 ratio as percent), (+)ephedrine", "setting": "[5]", "value": "<0.1", "unit": "%"},
      {"measurement": "Antibody Specificity (IC50 ratio as percent), (+)norpseudoephedrine", "setting": "[5]", "value": "<0.1", "unit": "%"},
      {"measurement": "Antibody Specificity (IC50 ratio as percent), (+)phenylpropanolamine", "setting": "[5]", "value": "<0.1", "unit": "%"},
      {"measurement": "Antibody Specificity (IC50 ratio as percent), (+)pseudoephedrine", "setting": "[5]", "value": 0.4, "unit": "%"},
      {"measurement": "Antibody Specificity (IC50 ratio as percent), (−)AMP", "setting": "[5]", "value": 6.3, "unit": "%"},
      {"measurement": "Antibody Specificity (IC50 ratio as percent), (−)MDA", "setting": "[5]", "value": 0.2, "unit": "%"},
      {"measurement": "Antibody Specificity (IC50 ratio as percent), (−)MDMA", "setting": "[5]", "value": 1.1, "unit": "%"},
      {"measurement": "Antibody Specificity (IC50 ratio as percent), (−)METH", "setting": "[5]", "value": 10.2, "unit": "%"},
      {"measurement": "Antibody Specificity (IC50 ratio as percent), /-phenylphrine", "setting": "[5]", "value": "<0.1", "unit": "%"},
      {"measurement": "Antibody Specificity (IC50 ratio as percent), dopamine", "setting": "[5]", "value": "<0.1", "unit": "%"},
      {"measurement": "Antibody Specificity (IC50 ratio as percent), epinephrine", "setting": "[5]", "value": "<0.1", "unit": "%"},
      {"measurement": "Antibody Specificity (IC50 ratio as percent), norepinepherine", "setting": "[5]", "value": "<0.1", "unit": "%"},
      {"measurement": "Antibody Specificity (IC50 ratio as percent), serotonin", "setting": "[5]", "value": "<0.1", "unit": "%"},
      {"measurement": "Antibody Specificity (IC50 ratio as percent), tyramine", "setting": "[5]", "value": "<0.1", "unit": "%"},
      {"measurement": "Antibody Specificity (IC50 ratio as percent), β-phenylethylamine", "setting": "[5]", "value": 0.1, "unit": "%"}
    ]},
    {"molecule": "B2", "values": [
      {"measurement": "Antibody Specificity (IC50 ratio as percent), (+)AMP", "setting": "[5]", "value": 33, "unit": "%"},
      {"measurement": "Antibody Specificity (IC50 ratio as percent), (+)MDMA", "setting": "[5]", "value": 41, "unit": "%"},
      {"measurement": "Antibody Specificity (IC50 ratio as percent), (+)METH", "setting": "[5]", "value": 100, "unit": "%^"},
      {"measurement": "Antibody Specificity (IC50 ratio as percent), (−)AMP", "setting": "[5]", "value": 5.3, "unit": "%"},
      {"measurement": "Antibody Specificity (IC50 ratio as percent), (−)MDMA", "setting": "[5]", "value": 0.6, "unit": "%"},
      {"measurement": "Antibody Specificity (IC50 ratio as percent), (−)METH", "setting": "[5]", "value": 2.2, "unit": "%"}
    ]}
  ]
}
